Earlier results on one substance are cited in paper PMC3345106.

The target in this data set is Cys34 (UniProt position 58, QYLQQCPFEDH). The note with it: HSA thiol in earlier reports, compared by the authors with their FA-free value.

What is called pKa is the negative logarithm of the acid dissociation constant. Consider “Human serum albumin (HSA) (Homo sapiens)”, for which the pKa is reported as approximately 8.
